The record followed here is the nanobody polyreactivity screen of Harvey et al. (2022).

This data set can be described thus: yeast display, Sf9 membrane polyspecificity reagent, FACS + sequencing; frameworks hold sequencing errors. In short, it runs like this: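 Galactose induction of a Saccharomyces cerevisiae BJ5465 synthetic nanobody display library ran 36–48 hours. The cells were then stained for 1 hour at 4 °C with 10% biotinylated, detergent-solubilized Sf9 membrane reagent, pulled down on streptavidin microbeads and FACS-sorted into low and high (top ~1%) gates on expression and reagent-binding fluorescence. Labels for polyreactivity follow the gate of origin.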
Take “QVQLEESGGGLVQAGGSLRLSCAASGSIFTYYAMGSYRQAPGKERELVARITRGGGTTYYADSVKGRFTISRDNAKNTVYLQMNSLKPEDTAVYYCAADFFAGTPRTFDYWGQGSQVTVSS”: the “polyreactivity (PSR sort gate)” value is given as “high polyreactivity”.

Take “QVQLEESGGGLVQAGGSLRLSCAASGSIFVTNAMGWYRQAPVKERELVAAISSGGNTNYADSVKGRFTISRDNAKNTVYLQMNSLKPEDTAVYYCAKDPDKVDYVDMDYWGQGTQVTVSS”: the “polyreactivity (PSR sort gate)” value is “low polyreactivity”.

Turning to “QVQLEESGGGLVQAGGSLRLSCAASGSIFWIYALGWYRQAPGKERELVATITRRGGSTYYADSVKGRFTISRDNAKNTVYLQMNSLKPEDTAVYYCATEPGYTYLTSYKYDYWGQGTQVTVSS”, the “polyreactivity (PSR sort gate)” value is on record as “low polyreactivity”.

As for “QVQLEESGGGLVQAGGSLRLSCAASGSIFYSNAMGWYRQAPGKEREFVAAISAGGGSTYYADSVKGRFTISRDNEKNTVYLQMNSLKPEDTSVYYCAAQPYNIIYPYDYWGQGTQVTVSS”, the “polyreactivity (PSR sort gate)” value is reported as “low polyreactivity”.

As to “QVQLEESGGGLVQAGGSLRLSCAASGSIFYSYAMGWYRQAPGKERELVAAINWSGGSTYYADSVKGRFTISRDNAKNTFYFQMNSLKPQDTAVYYCAADYGWGPIYDYWGQGTQVNVSS”, the “polyreactivity (PSR sort gate)” value is on record as “low polyreactivity”.

With “QVQLEESGGGLVQAGGSLRLSCAASGSIFYVYAIGSYRQAPRKERELVAAISQSGGNTYYADSVKGRFTISRDNAKNTVYLQMNSLKPEDTAVYYCNAVYYYYAGNYWGQGTQVTVSS”, the “polyreactivity (PSR sort gate)” value is “high polyreactivity”.

“QVQLEESGGGLVQAGGSLRLSCAASGSIIAGYAMGWYRQAPGKERELVAAISQRGTSTYYADSVKGRFTISRDNAKNTVYLQMNSLKPEDTAVYYCAARVVSRMDYWGQGTQVTVSS”: the “polyreactivity (PSR sort gate)” value was “high polyreactivity”.

In the case of “QVQLEESGGGLVQAGGSLRLSCAASGSNFYLNDMGWYRQAPGKEREFVAAIDSRGTSTYYADSVKGRFTISRDNAKNTVYLQMNSLNPEDTAVYYCAADSYALEYDYWGQGTQVTVSS”, the “polyreactivity (PSR sort gate)” value is reported as “low polyreactivity”.

Take “QVQLEESGGGLVQAGGSLRLSCAASGSTCGYYAMGWYRQAPGKERELVAVITRGGSTYYADSVKGRFTISRDNAMNTVYLQMNSLKPEDTAVYYCNARVQAVHYGYWGQGTQVPVSS”: the “polyreactivity (PSR sort gate)” value is reported as “high polyreactivity”.

On to “QVQLEESGGGLVQAGGSLRLSCAASGSTFANYAMGWYRQAPRKERELVAGISWRGGRTYYADSVMGRFTISRDNGKNTVYLQINILKPEDTAVYYCAVVHQTFTGDYWGQGTQVTVSS”, for which the “polyreactivity (PSR sort gate)” value is given as “high polyreactivity”.

Regarding “QVQLEESGGGLVQAGGSLRLSCAASGSTFGYYAMGWYRQAPGKERELVAAISRSGGITYYADSVKGRFTISRDNAKNTVYLQMNSLKPDDTAVYYCAADRNRYTGEDDSWGQGTQVTVSS”, the “polyreactivity (PSR sort gate)” value is “low polyreactivity”.

As for “QVQLEESGGGLVQAGGSLRLSCAASGSTFPYYAMGWYRQAPGKERELVAVITSSGSRTYYADSVKGRFTISRDNAKNTVYLQMNSLKPEDTAVYYCARDTRYYRPNRSQYDYWGQGTQVTVSS”, the “polyreactivity (PSR sort gate)” value was “high polyreactivity”.

As for “QVQLEESGGGLVQAGGSLRLSCAASGSTFSDNAKAWYRQATGKVRELVADITWSGGSTHYADSVKGRFTFSRDNAKNTVYLQMTSLKPEDTSVYYCARDNYKEGDYWGQGTKVTVSS”, the “polyreactivity (PSR sort gate)” value was “low polyreactivity”.

As to “QVQLEESGGGLVQAGGSLRLSCAASGSTFSRYAMGWYRPAPGKEREFVAAISRRAGGTYYADSVKGRFTISRDNAKNTVYLQMNSLKPEDTAVYYCATVLPRDYIGRATYDYWGQGTQVTVSS”, the “polyreactivity (PSR sort gate)” value is on record as “high polyreactivity”.

Turning to “QVQLEESGGGLVQAGGSLRLSCAASGSTFVPYAMGWYRQAPGKERELVASISWRGGSTSYADSVKGRFTISRDNAKNTVYLQMNSLKPEDTAVYYCAADLGLDYDDAQTRVVVTSEDYWGQGTQVTVSS”, the “polyreactivity (PSR sort gate)” value is reported as “high polyreactivity”.

Take “QVQLEESGGGLVQAGGSLRLSCAASGSTFWPYSMGWYRKATGKERELVAAITLRGGTTYYADSVKGRFTISRDNAMNTVYFQMNSLKPEDTAVYYCNADDYHYFSYDYWGQGTQVTVSS”: the “polyreactivity (PSR sort gate)” value was “low polyreactivity”.

Turning to “QVQLEESGGGLVQAGGSLRLSCAASGSTFWVYVMGWYRQAPGKERELVATIRWSTSSTYADSVKGRFTISRDNAKNTVYLQMNILKPEDTAVYYCNTYPRGNWGNFVEQDYDYWGQGTQVTVSS”, the “polyreactivity (PSR sort gate)” value is given as “low polyreactivity”.

Turning to “QVQLEESGGGLVQAGGSLRLSCAASGSTSTYNAMGWYRQAPGKERELVAAITESGGSTYYADSVKGRFTISRDNAKNTVYLQMNSLKPEDTAVYYCNTGYGLVDFLYGYYYWGQGTQVTVSS”, the “polyreactivity (PSR sort gate)” value is recorded as “low polyreactivity”.

Take “QVQLEESGGGLVQAGGSLRLSCAASGYIFQSYAMGWYRQAPGTERELVAAISRGGSTYYADSVKGRFTISRDNAMNSVYLQMNSLKPEDTAVYYCNTLTVGGFRRYYYWGQGSQVTVSS”: the “polyreactivity (PSR sort gate)” value was “high polyreactivity”.

As for “QVQLEESGGGLVQAGGSLRLSCAASRSTLDGYAMGWYRQAPGKERELVDAITFSGGITYYADSVKVRFTISRDNAKNTVYLQMNILKPEDTAVYYCAADISTWTTWSGTEYDYLGQGTQVTVSS”, the “polyreactivity (PSR sort gate)” value was “low polyreactivity”.

In the case of “QVQLEESGGGLVQAGGSLRLSCAASVSNLYYYPMGWYRQATRKERELVASIRNGGSTYYADSVKGLFTISRDNAKNTVYLQMNSLKPEDTAVYYCNARVSRSFRARYNYWGQGSQVTVSS”, the “polyreactivity (PSR sort gate)” value is on record as “high polyreactivity”.
